T1: human FcγRIIB expressed on HEK293 cells (human, UniProt P31994 43-310)
T1 construct: whole, on cells
T1 sequence (looked up): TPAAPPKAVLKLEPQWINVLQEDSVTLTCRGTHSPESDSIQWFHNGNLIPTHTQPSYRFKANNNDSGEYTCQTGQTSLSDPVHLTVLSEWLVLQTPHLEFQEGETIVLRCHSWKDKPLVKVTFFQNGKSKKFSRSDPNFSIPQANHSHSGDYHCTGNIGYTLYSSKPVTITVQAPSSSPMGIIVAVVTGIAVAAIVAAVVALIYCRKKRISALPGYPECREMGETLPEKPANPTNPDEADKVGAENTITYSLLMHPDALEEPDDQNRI

T2: human FcγRIIAH131 expressed on HEK293 cells (human, UniProt P12318 34-317)
T2 construct: whole, on cells
T2 sequence (looked up): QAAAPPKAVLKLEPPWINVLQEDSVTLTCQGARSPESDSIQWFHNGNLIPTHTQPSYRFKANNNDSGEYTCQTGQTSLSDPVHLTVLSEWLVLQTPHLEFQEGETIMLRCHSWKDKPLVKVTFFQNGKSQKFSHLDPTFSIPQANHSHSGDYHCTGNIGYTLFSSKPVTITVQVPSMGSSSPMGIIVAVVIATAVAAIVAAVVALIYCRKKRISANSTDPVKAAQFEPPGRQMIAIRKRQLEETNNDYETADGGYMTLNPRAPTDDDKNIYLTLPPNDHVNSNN

B1: hu333-4B2-IgG1mc (antibody)
heavy: EVQLVESGGGLVQPGGSLRLSCAVSGFSLTSYGVHWVRQAPGKGLEWVAVIWAGGSTNYADSVKGRFTISKDTSKNTVYLQMNSLRAEDTAVYYCAKPYGTSAMDYWGQGTLVTVSSASTKGPSVFPLAPSSKSTSGGTAALGCLVKDYFPEPVTVSWNSGALTSGVHTFPAVLQSSGLYSLSSVVTVPSSSLGTQTYICNVNHKPSNTKVDKKVEPKSCDKTHTCPPCPAPPAAAPSVFLFPPKPKDTLMISRTPEVTCVVVDVSHEDPEVKFNWYVDGVEVHNAKTKPREEQYNSTYRVVSVLTVLHQDWLNGKEYKCKVSNKALAAPIEKTISKAKGQPREPQVYTLPPSRDELTKNQVSLTCLVKGFYPSDIAVEWESNGQPENNYKTTPPVLDSDGSFFLYSKLTVDKSRWQQGNVFSCSVMHEALHNHYTQKSLSLSPGK
light: DIQMTQSPSSLSASVGDRVTITCKASQDVGIVVAWYQQKPGKAPKLLIYWASIRHTGVPSRFSGSGSGTEFTLTISSLQPDDFATYYCQQYSNYPLYTFGQGTKVEIKRTVAAPSVFIFPPSDEQLKSGTASVVCLLNNFYPREAKVQWKVDNALQSGNSQESVTEQDSKDSTYSLSSTLTLSKADYEKHKVYACEVTHQGLSSPVTKSFNRGEC
B2: hu333-4A2-IgG1mc (antibody)
heavy: EVQLVESGGGLVQPGGSLRLSCAVSGFSLTSYGVHWVRQAPGKGLEWVAVIWAGGSTNYVDSVKGRFTISKDNAKNTVYLQMNSLRAEDTAVYYCAKPYGTSAMDYWGQGTLVTVSSASTKGPSVFPLAPSSKSTSGGTAALGCLVKDYFPEPVTVSWNSGALTSGVHTFPAVLQSSGLYSLSSVVTVPSSSLGTQTYICNVNHKPSNTKVDKKVEPKSCDKTHTCPPCPAPPAAAPSVFLFPPKPKDTLMISRTPEVTCVVVDVSHEDPEVKFNWYVDGVEVHNAKTKPREEQYNSTYRVVSVLTVLHQDWLNGKEYKCKVSNKALAAPIEKTISKAKGQPREPQVYTLPPSRDELTKNQVSLTCLVKGFYPSDIAVEWESNGQPENNYKTTPPVLDSDGSFFLYSKLTVDKSRWQQGNVFSCSVMHEALHNHYTQKSLSLSPGK
light: DIQMTQSPSSLSASVGDRVTITCKASQDVGIVVAWYQQKPGKAPKLLIYWASIRHTGVPSRFSGSGSGTEFTLTISSLQPDDFATYYCQQYSNYPLYTFGQGTKVEIKRTVAAPSVFIFPPSDEQLKSGTASVVCLLNNFYPREAKVQWKVDNALQSGNSQESVTEQDSKDSTYSLSSTLTLSKADYEKHKVYACEVTHQGLSSPVTKSFNRGEC
B3: hu333-4B2-IgG1mf (antibody)
heavy: EVQLVESGGGLVQPGGSLRLSCAVSGFSLTSYGVHWVRQAPGKGLEWVAVIWAGGSTNYADSVKGRFTISKDTSKNTVYLQMNSLRAEDTAVYYCAKPYGTSAMDYWGQGTLVTVSSASTKGPSVFPLAPSSKSTSGGTAALGCLVKDYFPEPVTVSWNSGALTSGVHTFPAVLQSSGLYSLSSVVTVPSSSLGTQTYICNVNHKPSNTKVDKKVEPKSCDKTHTCPPCPAPPAAGPSVFLFPPKPKDTLMISRTPEVTCVVVDVSHEDPEVKFNWYVDGVEVHNAKTKPREEQYNSTYRVVSVLTVLHQDWLNGKEYKCKVSNKALAAPIEKTISKAKGQPREPQVYTLPPSRDELTKNQVSLTCLVKGFYPSDIAVEWESNGQPENNYKTTPPVLDSDGSFFLYSKLTVDKSRWQQGNVFSCSVMHEALHNHYTQKSLSLSPGK
light: DIQMTQSPSSLSASVGDRVTITCKASQDVGIVVAWYQQKPGKAPKLLIYWASIRHTGVPSRFSGSGSGTEFTLTISSLQPDDFATYYCQQYSNYPLYTFGQGTKVEIKRTVAAPSVFIFPPSDEQLKSGTASVVCLLNNFYPREAKVQWKVDNALQSGNSQESVTEQDSKDSTYSLSSTLTLSKADYEKHKVYACEVTHQGLSSPVTKSFNRGEC
B4: hu333-4A2-IgG1wt (antibody)
heavy: not shown
VL: DIQMTQSPSSLSASVGDRVTITCKASQDVGIVVAWYQQKPGKAPKLLIYWASIRHTGVPSRFSGSGSGTEFTLTISSLQPDDFATYYCQQYSNYPLYTFGQGTKVEIK
notes: light chain constant region (kappa) not tied to an entry for this form

Legend:
[1] = molecular target: T3, human PD-L1, full length, expressed on cells (human, UniProt Q9NZQ7 19-290); assay: cell-based or functional assay
T3 sequence (Q9NZQ7 19-290 limits assumed): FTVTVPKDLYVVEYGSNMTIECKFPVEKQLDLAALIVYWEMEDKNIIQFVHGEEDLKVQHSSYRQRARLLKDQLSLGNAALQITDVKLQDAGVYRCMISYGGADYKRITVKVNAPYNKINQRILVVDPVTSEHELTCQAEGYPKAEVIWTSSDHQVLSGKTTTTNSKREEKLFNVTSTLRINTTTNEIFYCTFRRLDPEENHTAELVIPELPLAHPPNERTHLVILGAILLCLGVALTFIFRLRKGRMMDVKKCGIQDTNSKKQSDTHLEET

human PD-L1-ECD/His = molecular target: T4, human PD-L1-ECD/His (human, UniProt Q9NZQ7 19-238); assay: ELISA on coated human PD-L1/His, anti-human Fc-HRP; x-axis printed as 'Ag concentration', mAb concentration according to paragraph 44 [A]
T4 construct: Expressed in 293-F cells; also called PD-L1/His; human PD-L1/His
T4 sequence (Q9NZQ7 19-238): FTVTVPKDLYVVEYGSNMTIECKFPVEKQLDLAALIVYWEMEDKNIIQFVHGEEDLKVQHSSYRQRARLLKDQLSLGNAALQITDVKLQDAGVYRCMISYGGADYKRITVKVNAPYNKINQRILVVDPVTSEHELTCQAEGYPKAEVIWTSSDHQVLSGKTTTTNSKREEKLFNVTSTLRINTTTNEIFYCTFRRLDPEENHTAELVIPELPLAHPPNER
Method: (§1) The monkey PD-L1/His and murine PD-L1/His were expressed and purified in a similar way to the human PD-L1/His as described earlier. […] The synthesized full length mAb was named as Y1-IgG1mc. The ELISA assay was performed essentially in the same way as described in the previous section. Briefly, 200 ng of PD-L1 protein was coated on each well of Nunc MaxiSorp ELISA plate (Cat. No. 442404, Nunc, Thermo Fisher). After washing and blocking, indicated concentrations of anti-PD-L1 mAbs were added and incubated at room temperature for 1 hour. After washing, the bound anti-PD-L1 mAbs were detected using a HRP-conjugated goat anti-human Fc antibody (Cat. No. A0170, Sigma).

mouse PD-L1/His = molecular target: T5, mouse PD-L1/His (mouse (Mus musculus), UniProt Q9EP73 19-239); assay: ELISA on coated mouse PD-L1/His, anti-human Fc-HRP [C]
T5 construct: extracellular domain; Said to be expressed and purified in a similar way to the human PD-L1/His; also called murine PD-L1/His; murine PD-L1; not shown: His tag
T5 sequence (Q9EP73 19-239): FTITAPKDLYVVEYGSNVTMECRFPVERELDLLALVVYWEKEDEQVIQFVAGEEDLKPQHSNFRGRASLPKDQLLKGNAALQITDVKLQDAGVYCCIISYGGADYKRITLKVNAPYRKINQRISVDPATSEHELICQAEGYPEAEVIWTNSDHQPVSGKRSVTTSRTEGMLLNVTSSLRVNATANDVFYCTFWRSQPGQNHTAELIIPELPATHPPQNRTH
Method: as §1

[2] = molecular target: T3, human PD-L1, full length, expressed on …; assay: FACS on HEK293/PD-L1 cells
Method: FACS binding analysis was performed as described in previous sections.

[3] = molecular target: T6, human FcγRIIIAF158 expressed on HEK293 cells (human, UniProt P08637 17-254); assay: FACS, monomeric mAb on FcγR-expressing HEK293 cells, goat anti-human IgG F(ab')2-Alexa Fluor 488 detection
T6 construct: whole, on cells; Co-expressed with FcRγ subunit
T6 sequence (P08637 17-254): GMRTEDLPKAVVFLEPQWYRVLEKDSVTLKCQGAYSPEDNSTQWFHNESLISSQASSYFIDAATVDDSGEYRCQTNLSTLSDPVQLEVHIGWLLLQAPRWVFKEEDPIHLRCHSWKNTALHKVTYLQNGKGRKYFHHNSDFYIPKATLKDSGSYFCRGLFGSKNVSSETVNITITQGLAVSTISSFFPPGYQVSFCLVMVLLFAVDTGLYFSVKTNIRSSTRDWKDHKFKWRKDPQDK
Method: (§2) Bindings of humanized anti-PD-L1 in various IgG1 formats (wt, IgG1mc, IgG1mf, SEQ. NO. 27-29) to FcγRs were also determined by flow cytometry. In brief, a series of stable HEK293 transfectants expressing human FcγRs were established. These stable cell lines expressed FcγRI, FcγRIIAH131, FcγRIIAR131, FcγRIIB, FcγRIIIAF158 or FcγRIIIAV158, respectively. Multi-subunit FcγRs (i.e., FcγRI and FcγRIIIA) were co-expressed with FcRγ subunit.

[4] = molecular target: T1, human FcγRIIB expressed on HEK293 cells; assay: as above
Method: as §2

[5] = molecular target: T7, human FcγRI expressed on HEK293 cells (human, UniProt P12314 16-374); assay: as above
T7 construct: whole, on cells; Co-expressed with FcRγ subunit
T7 sequence (P12314 16-374): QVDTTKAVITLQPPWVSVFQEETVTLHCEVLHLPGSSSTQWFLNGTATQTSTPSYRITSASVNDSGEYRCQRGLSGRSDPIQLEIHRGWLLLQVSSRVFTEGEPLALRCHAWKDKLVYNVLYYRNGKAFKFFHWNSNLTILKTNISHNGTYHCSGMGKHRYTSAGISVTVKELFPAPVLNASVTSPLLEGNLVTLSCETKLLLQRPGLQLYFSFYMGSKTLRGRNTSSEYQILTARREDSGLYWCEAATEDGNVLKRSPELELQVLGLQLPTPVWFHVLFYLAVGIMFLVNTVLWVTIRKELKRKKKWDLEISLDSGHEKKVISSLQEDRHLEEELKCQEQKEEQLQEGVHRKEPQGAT
Method: as §2

[6] = molecular target: T2, human FcγRIIAH131 expressed on HEK293 …; assay: as above
Method: as §2

[7] = molecular target: T8, human FcγRIIIAV158 expressed on cells (human, UniProt P08637 17-254); assay: as above
T8 construct: whole, on cells; Co-expressed with FcRγ subunit; on HEK293 cells in the FACS assays, on NK92MI/CD16V cells in the ADCC assay; also called CD16 (V158 allele)
T8 sequence (P08637 17-254 F176V limits assumed): as the sequence (P08637 17-254) above, with F160V counted along it
Method: as §2

[8] = molecular target: T9, cynomolgus monkey PD-L1/His (cynomolgus monkey (Macaca fascicularis), UniProt G7PSE7 19-238); assay: ELISA on coated cynomolgus monkey PD-L1/His, anti-human Fc-HRP [B]
T9 construct: extracellular domain; Said to be expressed and purified in a similar way to the human PD-L1/His (PD-L1-ECD/His); not shown: His tag
T9 sequence (G7PSE7 entry or part of it): as the sequence (Q9NZQ7 19-238) above, with A33T, A34S, S62N, R68Q, Q82R, F173L, T185A, T192I, H215L counted along it
Method: as §1

[9] = molecular target: T7, human FcγRI expressed on HEK293 cells; assay: FACS, 10 µg/mL mAb as immune complex with biotin-PD-L1/His and neutravidin on FcγR-expressing HEK293 cells
From the text: Such bindings are thought to be more relevant under physiological condition, as the binding strength between monomeric γFc and most of the FcγRs is very weak. Human immune system also takes advantage of this mechanism to avoid non-specific activation of FcγRs by monomeric IgG which are present at high levels in serum.

[10] = molecular target: T3, human PD-L1, full length, expressed on …; assay: FACS competition with CD80/Fc on HEK293/PD-L1 cells

| Binder | IL-2 release in HuT78/P3Z: IC50 [1] [µg/mL] | IL-2 release in HuT78/P3Z: Max inhibition [1] [%] | IL-2 release in HuT78/PD-1: EC50 [1] [µg/mL] | IL-2 release in HuT78/PD-1: Top line [1] [pg/mL] | EC50 (read off the curve) (human PD-L1-ECD/His) [µg/mL] | binding result (mouse PD-L1/His) | EC50 [2] [µg/mL] | Top MFI [2] [MFI] | binding result [3] | binding result [4] | binding result [5] | binding result [6] | binding result [7] | EC50 (read off the curve) [8] [µg/mL] | MFI [9] [MFI] | IC50 [10] [µg/mL] | Max inhibition [10] [%] |
| --- | --- | --- | --- | --- | --- | --- | --- | --- | --- | --- | --- | --- | --- | --- | --- | --- | --- |
| B1 | 0.039 | 99 | 0.084 | 300 | ~0.03 | no binding (tested: 1 µg/ml) | 0.092 | 1390 | no binding | no binding | no binding | no binding | no binding | ~0.04 | 7.01 | 0.103 | 100 |
| B2 | 0.045 | 99 | 0.087 | 299 | ~0.03 | no binding (tested: 1 µg/ml) | 0.098 | 1360 | no binding | no binding | no binding | no binding | no binding | ~0.04 | 7 | 0.078 | 100 |
| B3 | 0.037 | 99 | 0.075 | 287 | ~0.03 | no binding (tested: 1 µg/ml) | 0.102 | 1340 | no binding | no binding | no binding | no binding | no binding | ~0.04 | 7.11 | 0.118 | 100 |
| B4 | – | – | – | – | – | – | – | – | – | – | – | – | – | – | 3260 | – | – |

From US20180215825A1 (BEIGENE, published 2018)
